According to patent publication US20220289850 (published 2022):

How the values were obtained:
[1] = biological target: T1, mouse integrin avb8 (mouse); assay: FACS C8-S cells
T1 chain 1: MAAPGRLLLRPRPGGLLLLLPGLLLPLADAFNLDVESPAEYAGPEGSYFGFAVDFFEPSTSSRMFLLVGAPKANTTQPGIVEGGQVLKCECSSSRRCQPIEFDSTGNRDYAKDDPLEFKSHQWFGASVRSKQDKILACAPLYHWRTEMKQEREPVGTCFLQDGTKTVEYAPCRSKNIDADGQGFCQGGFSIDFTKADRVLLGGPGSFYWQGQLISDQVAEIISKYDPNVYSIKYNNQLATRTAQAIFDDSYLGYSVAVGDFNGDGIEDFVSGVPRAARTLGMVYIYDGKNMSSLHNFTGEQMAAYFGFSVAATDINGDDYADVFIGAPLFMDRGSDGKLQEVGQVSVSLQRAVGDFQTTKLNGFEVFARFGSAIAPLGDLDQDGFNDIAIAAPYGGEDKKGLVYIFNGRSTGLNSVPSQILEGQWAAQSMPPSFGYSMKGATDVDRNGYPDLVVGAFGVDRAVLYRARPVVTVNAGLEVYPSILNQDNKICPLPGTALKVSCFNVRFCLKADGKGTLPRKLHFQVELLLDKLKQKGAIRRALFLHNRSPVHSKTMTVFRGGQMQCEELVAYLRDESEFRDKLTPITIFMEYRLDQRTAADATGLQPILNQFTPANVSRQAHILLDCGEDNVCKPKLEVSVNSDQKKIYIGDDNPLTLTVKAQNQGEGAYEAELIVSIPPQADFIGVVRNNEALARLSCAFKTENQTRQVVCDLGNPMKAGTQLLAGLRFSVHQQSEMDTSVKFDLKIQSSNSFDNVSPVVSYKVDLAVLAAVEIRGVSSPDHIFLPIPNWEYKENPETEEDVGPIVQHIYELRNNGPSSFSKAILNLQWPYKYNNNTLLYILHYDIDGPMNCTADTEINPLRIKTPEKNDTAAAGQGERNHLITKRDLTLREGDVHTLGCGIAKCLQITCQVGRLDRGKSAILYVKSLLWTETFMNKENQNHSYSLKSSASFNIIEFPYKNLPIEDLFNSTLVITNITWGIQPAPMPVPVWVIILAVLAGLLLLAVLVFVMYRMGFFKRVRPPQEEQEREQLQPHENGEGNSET
T1 chain 2: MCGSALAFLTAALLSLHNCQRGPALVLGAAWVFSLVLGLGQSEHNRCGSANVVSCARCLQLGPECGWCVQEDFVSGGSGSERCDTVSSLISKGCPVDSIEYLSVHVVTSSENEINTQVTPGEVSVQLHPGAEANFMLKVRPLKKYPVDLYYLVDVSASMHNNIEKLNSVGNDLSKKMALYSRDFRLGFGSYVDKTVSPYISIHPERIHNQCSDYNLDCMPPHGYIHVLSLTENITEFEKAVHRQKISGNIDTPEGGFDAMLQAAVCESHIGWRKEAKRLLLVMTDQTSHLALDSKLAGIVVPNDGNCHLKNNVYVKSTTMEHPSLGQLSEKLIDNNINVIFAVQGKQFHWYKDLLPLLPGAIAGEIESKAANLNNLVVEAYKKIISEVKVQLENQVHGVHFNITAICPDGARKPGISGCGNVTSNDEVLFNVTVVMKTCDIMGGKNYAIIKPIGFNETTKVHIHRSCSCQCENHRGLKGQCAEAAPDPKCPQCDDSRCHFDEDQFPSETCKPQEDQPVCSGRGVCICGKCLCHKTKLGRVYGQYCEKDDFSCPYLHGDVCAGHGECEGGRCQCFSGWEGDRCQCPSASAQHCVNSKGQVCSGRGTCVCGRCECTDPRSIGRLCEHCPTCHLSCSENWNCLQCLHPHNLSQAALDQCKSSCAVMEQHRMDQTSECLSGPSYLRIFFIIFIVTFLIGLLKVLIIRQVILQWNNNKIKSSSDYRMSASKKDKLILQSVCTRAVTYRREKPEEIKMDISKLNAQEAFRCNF

[2] = biological target: C1q (human, UniProt P02745); assay: other, up to 30 ug/mL
Sequence of C1q (P02745 23-245, chain 1 of 3): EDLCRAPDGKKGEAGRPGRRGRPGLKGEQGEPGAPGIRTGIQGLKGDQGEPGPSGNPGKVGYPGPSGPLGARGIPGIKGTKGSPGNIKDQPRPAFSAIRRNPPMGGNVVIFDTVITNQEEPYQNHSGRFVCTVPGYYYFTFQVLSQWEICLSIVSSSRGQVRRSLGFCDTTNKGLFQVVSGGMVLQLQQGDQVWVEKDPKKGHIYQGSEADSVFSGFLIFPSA
Sequence of C1q (P02746 28-253, chain 2 of 3, further chain): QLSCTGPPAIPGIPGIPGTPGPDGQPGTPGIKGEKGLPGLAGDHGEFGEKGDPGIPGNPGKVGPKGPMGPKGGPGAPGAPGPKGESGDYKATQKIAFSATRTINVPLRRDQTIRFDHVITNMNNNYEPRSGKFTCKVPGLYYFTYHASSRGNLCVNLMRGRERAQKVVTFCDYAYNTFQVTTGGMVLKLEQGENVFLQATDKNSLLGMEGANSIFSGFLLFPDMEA
Sequence of C1q (P02747 29-245, chain 3 of 3, further chain): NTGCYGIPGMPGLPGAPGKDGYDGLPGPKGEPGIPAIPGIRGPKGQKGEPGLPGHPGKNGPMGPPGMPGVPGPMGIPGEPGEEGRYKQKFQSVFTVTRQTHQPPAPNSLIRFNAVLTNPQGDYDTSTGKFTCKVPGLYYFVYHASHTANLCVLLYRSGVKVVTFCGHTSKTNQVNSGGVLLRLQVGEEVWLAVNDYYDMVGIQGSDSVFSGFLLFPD

- EC50 [1]: 0.145 nM
- binding result [2]: no binding
B1: ADWA11 2.4 IgG (antibody)
chain 1: EVQLVESGGGLVQPGGSLRLSCAASGFNIKDYYMNWVRQAPGKGLEWVGWIDPDQGNTIYEPKFQGRFTISADTSKNSAYLQMNSLRAEDTAVYYCARRLLMDYWGQGTLVTVSSASTKGPSVFPLAPSSKSTSGGTAALGCLVKDYFPEPVTVSWNSGALTSGVHTFPAVLQSSGLYSLSSVVTVPSSSLGTQTYICNVNHKPSNTKVDKKVEPKSCDKTHTCPPCPAPEAAGAPSVFLFPPKPKDTLMISRTPEVTCVVVDVSHEDPEVKFNWYVDGVEVHNAKTKPREEQYNSTYRVVSVLTVLHQDWLNGKEYKCKVSNKALPAPIEKTISKAKGQPREPQVYTLPPSREEMTKNQVSLTCLVKGFYPSDIAVEWESNGQPENNYKTTPPVLDSDGSFFLYSKLTVDKSRWQQGNVFSCSVMHEALHNHYTQKSLSLSPGK
chain 2: DIQMTQSPSSLSASVGDRVTITCRSTKSLSHFNGNTYLFWYQQKPGKAPKRLIYYMSSLASGVPSRFSGSGSGTDFTLTISSLQPEDFATYYCQQSLEYPFTFGGGTKVEIKRTVAAPSVFIFPPSDEQLKSGTASVVCLLNNFYPREAKVQWKVDNALQSGNSQESVTEQDSKDSTYSLSSTLTLSKADYEKHKVYACEVTHQGLSSPVTKSFNRGEC
